This passage reports TG/wt (binding to P301L tau from Tg4510 mice over wild type) results from patent US20190330320A1.

For this experiment, the target named is hyperphosphorylated human tau P301L (4R0N) from rTg4510 mouse brain (64 and 70 kDa species) (human) (UniProt P10636). Nature of the experiment: binding to P301L human mutant tau isolated from 10 month old Tg4510 mice.
Chain of hyperphosphorylated human tau P301L (4R0N) from rTg4510 mouse brain (64 and 70 kDa species) (human) (P10636 other isoform, or with tags, fused parts or gaps P301L P301L): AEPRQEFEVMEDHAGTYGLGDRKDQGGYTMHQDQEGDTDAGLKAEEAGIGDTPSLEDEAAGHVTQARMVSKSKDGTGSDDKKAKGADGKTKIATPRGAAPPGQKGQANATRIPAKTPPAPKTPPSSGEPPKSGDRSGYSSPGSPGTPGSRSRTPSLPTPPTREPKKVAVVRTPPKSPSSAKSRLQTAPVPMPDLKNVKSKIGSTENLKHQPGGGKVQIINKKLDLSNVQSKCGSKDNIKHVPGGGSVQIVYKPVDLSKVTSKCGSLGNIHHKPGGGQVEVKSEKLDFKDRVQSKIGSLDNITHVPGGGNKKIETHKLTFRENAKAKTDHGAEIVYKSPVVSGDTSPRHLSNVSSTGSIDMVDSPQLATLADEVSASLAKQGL

B1: 4E4 (antibody, from another filing, V domains shown)
VH: EVQLVESGGGLVQPGGSLKLSCAASGFNFNISAIHWVRQASGKGLEWVGRIRSKSHNYATLYAASLKGRFTLSRDDSRNTAYLQMSSLQTEDMAVYYCTVLSANYDTFDYWGQGTLVTVSS
VL: SYELTQPPSVSVSPGQTARISCFGDTLPKQYTYWYQQKPGQAPVLVIYKDTERPSGIPERFSGSSSGTTVTLTISGVQAEDEADYYCLSADNSATWVFGGGTKVTVL
Turning to B1, the TG/wt (binding to P301L tau from Tg4510 mice over wild type) amounted to 1.
